Starred links: 1 amine or outer side, 2 acyl side, 3 side chain; linkers in the order of their positions; H or OH if unused. Suc = O=C(CCC(=O)[*:2])[*:1]; Dox = doxorubicin
Tests used:
Pyg-Leu-Ala-Leu-Dnr = system: T1, Pyg-Leu-Ala-Leu-Dnr
T1 sequence: LAL

Suc-Leu-Ala-Gly-Dox = system: T2, Suc-Leu-Ala-Gly-Dox
T2 sequence: LAG

Suc-Leu-Ala-Leu-Dnr = system: T3, Suc-Leu-Ala-Leu-Dnr
T3 sequence: LAL

Suc-Leu-Ala-Leu-Dox = system: T4, Suc-Leu-Ala-Leu-Dox
T4 sequence: LAL

Suc-Leu-Thr-Leu-Dnr = system: T5, Suc-Leu-Thr-Leu-Dnr
T5 sequence: LTL

Suc-Leu-Tyr-Leu-Dnr = system: T6, Suc-Leu-Tyr-Leu-Dnr
T6 sequence: LYL

Suc-Leu-Tyr-Leu-Dox = system: T7, Suc-Leu-Tyr-Leu-Dox
T7 sequence: LYL

Suc-Met-Ala-Leu-Dnr = system: T8, Suc-Met-Ala-Leu-Dnr
T8 sequence: MAL

Suc-Met-Ala-Leu-Dox = system: T9, Suc-Met-Ala-Leu-Dox
T9 sequence: MAL

Suc-Met-Gly-Ile-Dnr = system: T10, Suc-Met-Gly-Ile-Dnr
T10 sequence: MGI

Suc-Met-Gly-Leu-Dnr = system: T11, Suc-Met-Gly-Leu-Dnr
T11 sequence: MGL

Suc-Met-Gly-Phe-Dnr = system: T12, Suc-Met-Gly-Phe-Dnr
T12 sequence: MGF

Suc-Nle-Ala-Leu-Dnr = system: T13, Suc-Nle-Ala-Leu-Dnr
T13 sequence: XAL

Suc-Nle-Gly-Phe-Dnr = system: T14, Suc-Nle-Gly-Phe-Dnr
T14 sequence: XGF

Suc-Phe-Gly-Ile-Dnr = system: T15, Suc-Phe-Gly-Ile-Dnr
T15 sequence: FGI

Suc-Phe-Gly-Leu-Dnr = system: T16, Suc-Phe-Gly-Leu-Dnr
T16 sequence: FGL

Suc-Phe-Gly-Phe-Dnr = system: T17, Suc-Phe-Gly-Phe-Dnr
T17 sequence: FGF

Suc-Tyr-Ala-Ile-Dnr = system: T18, Suc-Tyr-Ala-Ile-Dnr
T18 sequence: YAI

Suc-Tyr-Ala-Leu-Dnr = system: T19, Suc-Tyr-Ala-Leu-Dnr
T19 sequence: YAL

Suc-βAla-Leu-Ala-Leu-Dox = system: T20, Suc-βAla-Leu-Ala-Leu-Dox
T20 sequence: ALAL

[1] = target: CD10 expressed on Ramos and Namalwa B-cell lines (UniProt P08473 2-750, limits assumed); assay: cell-based or functional assay
Chain of CD10 expressed on Ramos and Namalwa B-cell lines (P08473 2-750 limits assumed): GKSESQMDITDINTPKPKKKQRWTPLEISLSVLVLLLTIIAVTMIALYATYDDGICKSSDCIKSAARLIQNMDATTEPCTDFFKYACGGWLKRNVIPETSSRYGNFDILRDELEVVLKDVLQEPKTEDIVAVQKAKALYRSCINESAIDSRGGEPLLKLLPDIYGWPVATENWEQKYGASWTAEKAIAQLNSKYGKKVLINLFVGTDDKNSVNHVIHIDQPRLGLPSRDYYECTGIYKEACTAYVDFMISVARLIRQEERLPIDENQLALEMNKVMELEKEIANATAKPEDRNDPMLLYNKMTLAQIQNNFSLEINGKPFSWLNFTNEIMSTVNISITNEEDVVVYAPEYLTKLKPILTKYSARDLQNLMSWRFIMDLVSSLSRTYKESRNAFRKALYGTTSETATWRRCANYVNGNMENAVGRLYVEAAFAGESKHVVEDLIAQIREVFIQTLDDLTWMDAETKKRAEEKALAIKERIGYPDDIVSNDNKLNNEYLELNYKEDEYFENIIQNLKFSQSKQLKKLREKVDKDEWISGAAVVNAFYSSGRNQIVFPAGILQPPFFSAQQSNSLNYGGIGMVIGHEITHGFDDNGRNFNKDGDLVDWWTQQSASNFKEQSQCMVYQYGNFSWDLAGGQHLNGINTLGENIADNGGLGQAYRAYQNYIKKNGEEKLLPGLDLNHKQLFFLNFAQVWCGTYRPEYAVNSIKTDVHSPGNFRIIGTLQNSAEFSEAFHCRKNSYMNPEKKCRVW

Q: “trouase (carcinoma cell enzyme preparations; HeLa cell anion exchange fraction pool)” was tested. Which Relative Cleavage % (Pyg-Leu-Ala-Leu-Dnr) did it give?
A: 76%

Q: And the “cleavage by carcinoma enzyme preparations (HPLC, 2 hr at 37 C)” value (“cleavage … (HPLC, 2 hr at 37 C)” for short) (Pyg-Leu-Ala-Leu-Dnr)?
A: cleaved by the trouase under the given conditions

Q: What about the Relative Cleavage % (Suc-Leu-Ala-Gly-Dox) of the same molecule?
A: 40%

Q: What about the “cleavage … (HPLC, 2 hr at 37 C)” value (Suc-Leu-Ala-Gly-Dox) of the same molecule?
A: cleaved by the trouase under the given conditions

Q: What about the Relative Cleavage % (Suc-Leu-Ala-Leu-Dnr) of the same molecule?
A: 76%

Q: What about the “cleavage … (HPLC, 2 hr at 37 C)” value (Suc-Leu-Ala-Leu-Dnr) of the same molecule?
A: cleaved by the trouase under the given conditions

Q: And the Relative Cleavage % (Suc-Leu-Ala-Leu-Dox)?
A: 62%

Q: And the “cleavage … (HPLC, 2 hr at 37 C)” value (Suc-Leu-Ala-Leu-Dox)?
A: cleaved by the trouase under the given conditions

Q: And the “cleavage … (HPLC, 2 hr at 37 C)” value (Suc-Leu-Thr-Leu-Dnr)?
A: cleaved by the trouase under the given conditions

Q: What about the “cleavage … (HPLC, 2 hr at 37 C)” value (Suc-Leu-Tyr-Leu-Dnr) of the same molecule?
A: cleaved by the trouase under the given conditions

Q: And the “cleavage … (HPLC, 2 hr at 37 C)” value (Suc-Leu-Tyr-Leu-Dox)?
A: cleaved by the trouase under the given conditions

Q: And the Relative Cleavage % (Suc-Met-Ala-Leu-Dnr)?
A: 69%

Q: And the “cleavage … (HPLC, 2 hr at 37 C)” value (Suc-Met-Ala-Leu-Dnr)?
A: cleaved by the trouase under the given conditions

Q: What about the Relative Cleavage % (Suc-Met-Ala-Leu-Dox) of the same molecule?
A: 49%

Q: And the “cleavage … (HPLC, 2 hr at 37 C)” value (Suc-Met-Ala-Leu-Dox)?
A: cleaved by the trouase under the given conditions

Q: What about the Relative Cleavage % (Suc-Met-Gly-Ile-Dnr) of the same molecule?
A: 46%

Q: What about the “cleavage … (HPLC, 2 hr at 37 C)” value (Suc-Met-Gly-Ile-Dnr) of the same molecule?
A: cleaved by the trouase under the given conditions

Q: And the Relative Cleavage % (Suc-Met-Gly-Leu-Dnr)?
A: 55%

Q: And the “cleavage … (HPLC, 2 hr at 37 C)” value (Suc-Met-Gly-Leu-Dnr)?
A: cleaved by the trouase under the given conditions

Q: What about the Relative Cleavage % (Suc-Met-Gly-Phe-Dnr) of the same molecule?
A: 29%

Q: And the “cleavage … (HPLC, 2 hr at 37 C)” value (Suc-Met-Gly-Phe-Dnr)?
A: cleaved by the trouase under the given conditions

Q: And the “cleavage … (HPLC, 2 hr at 37 C)” value (Suc-Nle-Ala-Leu-Dnr)?
A: cleaved by the trouase under the given conditions

Q: What about the Relative Cleavage % (Suc-Nle-Gly-Phe-Dnr) of the same molecule?
A: 17%

Q: What about the Relative Cleavage % (Suc-Phe-Gly-Ile-Dnr) of the same molecule?
A: 54%

Q: And the “cleavage … (HPLC, 2 hr at 37 C)” value (Suc-Phe-Gly-Ile-Dnr)?
A: cleaved by the trouase under the given conditions

Q: And the Relative Cleavage % (Suc-Phe-Gly-Leu-Dnr)?
A: 24%

Q: And the “cleavage … (HPLC, 2 hr at 37 C)” value (Suc-Phe-Gly-Leu-Dnr)?
A: cleaved by the trouase under the given conditions

Q: And the Relative Cleavage % (Suc-Phe-Gly-Phe-Dnr)?
A: 12%

Q: What about the “cleavage … (HPLC, 2 hr at 37 C)” value (Suc-Phe-Gly-Phe-Dnr) of the same molecule?
A: cleaved by the trouase under the given conditions

Q: What about the Relative Cleavage % (Suc-Tyr-Ala-Ile-Dnr) of the same molecule?
A: 25%

Q: What about the “cleavage … (HPLC, 2 hr at 37 C)” value (Suc-Tyr-Ala-Ile-Dnr) of the same molecule?
A: cleaved by the trouase under the given conditions

Q: And the Relative Cleavage % (Suc-Tyr-Ala-Leu-Dnr)?
A: 77%

Q: Which % hydrolysis/10 hr (Suc-Leu-Ala-Gly-Dox) does the source give for “purified Porcine Kidney CD10 (Elastin Products Company)” here?
A: 0%

Q: And the Fraction hydrolyzed relative to standard (Suc-Leu-Ala-Gly-Dox)?
A: 0

Q: What about the % hydrolysis/10 hr (Suc-Leu-Ala-Leu-Dox) of the same molecule?
A: 8.3%

Q: And the Fraction hydrolyzed relative to standard (Suc-Leu-Ala-Leu-Dox)?
A: 0.75

Q: And the % hydrolysis/10 hr (Suc-βAla-Leu-Ala-Leu-Dox)?
A: 10.9%

Q: What about the Fraction hydrolyzed relative to standard (Suc-βAla-Leu-Ala-Leu-Dox) of the same molecule?
A: 1

Q: Which “IC50 (µM), 3H-thymidine incorporation, Namalwa (CD10pos) cells” value [1] does the source give for Suc-Leu-Ala-Gly-Dox [Suc-Leu-Ala-Gly-Dox] here?
A: 17.3 µM

Q: What about the “IC50 (µM), 3H-thymidine incorporation, Ramos (CD10pos) cells” value [1] of the same molecule?
A: 22.7 µM

Q: And the “Ratio of IC50 Ball-1 (CD10neg):Namalwa (CD10pos)” value [1]?
A: 1

Q: What about the “Ratio of IC50 Ball-1 (CD10neg):Ramos (CD10pos)” value [1] of the same molecule?
A: 1

Q: With Suc-Leu-Ala-Leu-Dox [Suc-Leu-Ala-Leu-Dox] as the molecule, how does the “IC50 (µM), 3H-thymidine incorporation, Namalwa (CD10pos) cells” value [1] read?
A: 2.27 µM

Q: What about the “IC50 (µM), 3H-thymidine incorporation, Ramos (CD10pos) cells” value [1] of the same molecule?
A: 2.63 µM

Q: What about the “Ratio of IC50 Ball-1 (CD10neg):Namalwa (CD10pos)” value [1] of the same molecule?
A: 35

Q: And the “Ratio of IC50 Ball-1 (CD10neg):Ramos (CD10pos)” value [1]?
A: 30

Reference: patent US20070275903A1 (Bristol-Myers Squibb, published 2007)
